In patent US20240317826:
Where a chain is given by its changes, count along the chain named. Names may count otherwise.

B1: HIV-1NL4-3 integrase (IN), wild type, in virus / GagPol (protein)
chain: FLDGIDKAQEEHEKYHSNWRAMASDFNLPPVVAKEIVASCDKCQLKGEAMHGQVDCSPGIWQLDCTHLEGKVILVAVHVASGYIEAEVIPAETGQETAYFLLKLAGRWPVKTVHTDNGSNFTSTTVKAACWWAGIKQEFGIPYNPQSQGVIESMNKELKKIIGQVRDQAEHLKTAVQMAVFIHNFKRKGGIGGYSAGERIVDIIATDIQTKELQKQITKIQNFRVYYRDSRDPVWKGPAKLLWKGEGAVVIQDNSDIKVVPRRKAKIIRDYGKQMAGDDCVASRQDED
B2: HIV-1NL4-3 integrase W235E, in virus (protein)
chain: B1 chain with W235E
B3: HIV-1NL4-3 integrase R228A, in virus (protein)
chain: B1 chain with R228A

Columns and labels:
[1] = biological target: INI1 of 293 T producer cells (endogenous), Q12824

| Protein | INI1 incorporation into HIV-1 virions (Western blot of concentrated virions) [1] | INI1 incorporation into HIV-1 virions (Western analysis of concentrated virions) (SP38 stapled peptide) |
| --- | --- | --- |
| B1 | wild type virus (FIG. 18c lane 2) ... incorporated INI1 | INI1 was not incorporated into HIV-1 virions produced in the presence of SP38 |
| B2 | but not the W235E and R228A mutant virions incorporated INI1 | – |
| B3 | but not the W235E and R228A mutant virions incorporated INI1 | – |
